Source: patent US20260209332A1 (SORRISO PHARMACEUTICALS, published 2026)

Columns and labels:
[1] = target: T1, tumor necrosis factor alpha (TNF-alpha) (UniProt P01375 77-233); assay: competition ELISA on TNF-alpha; competitor: biotinylated adalimumab
T1 construct: Called a homo-trimeric protein in the general description

[2] = target: T2, interleukin-23 (IL-23) (UniProt Q9NPF7 20-189; P29460 23-328); assay: IL-23/IL-23R interference ELISA; blocked interaction: IL-23 with IL-23 receptor
T2 sequence (looked up) 1: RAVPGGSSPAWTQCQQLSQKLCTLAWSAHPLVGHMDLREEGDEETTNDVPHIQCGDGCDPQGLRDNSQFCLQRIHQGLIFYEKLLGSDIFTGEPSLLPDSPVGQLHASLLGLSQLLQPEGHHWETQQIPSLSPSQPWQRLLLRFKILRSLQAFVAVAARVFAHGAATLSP
T2 sequence (looked up) 2: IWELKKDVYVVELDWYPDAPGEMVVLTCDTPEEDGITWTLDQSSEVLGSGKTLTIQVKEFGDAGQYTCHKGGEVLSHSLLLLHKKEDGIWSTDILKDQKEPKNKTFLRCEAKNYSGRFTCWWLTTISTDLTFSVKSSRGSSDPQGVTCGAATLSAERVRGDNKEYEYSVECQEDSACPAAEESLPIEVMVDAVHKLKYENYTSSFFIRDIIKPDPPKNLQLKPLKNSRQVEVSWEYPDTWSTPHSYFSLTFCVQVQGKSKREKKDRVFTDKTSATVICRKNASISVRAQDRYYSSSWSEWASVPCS

[3] = target: T2, interleukin-23 (IL-23); assay: IL-23/IL-23R interference ELISA; blocked interaction: IL-23 with IL-23 receptor; arm liberated by trypsin
[4] = target: T1, tumor necrosis factor alpha (TNF-alpha); assay: competition ELISA on TNF-alpha; competitor: biotinylated adalimumab; arm liberated by trypsin

T1 sequence (P01375 77-233 limits assumed): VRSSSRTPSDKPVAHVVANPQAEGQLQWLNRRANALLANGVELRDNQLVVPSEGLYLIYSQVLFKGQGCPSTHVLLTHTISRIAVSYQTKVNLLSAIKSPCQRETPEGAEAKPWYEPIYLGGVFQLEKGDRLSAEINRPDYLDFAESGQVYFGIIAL

B1: TNF-alpha/IL-23 dual inhibitor (bispecific anti-TNF-alpha/anti-IL-23 domain antibody) (bispecific antibody)
chain: DVQLVESGGGLVQPGGSLKLSCAASGFDFSSHWMYWVRQAPGKELEWLSEINTNGLITHYGDSVKGRFTVSRNNAANKMYLELTRLEPEDTALYYCARNQHGLNKGQGTQVTVSSGGGGSGGGGSKGGGGSGGGGSEVQLVESGGGQVQPGGSLSLSCESSVSIWSFKVMGWFRQVPGKQRELVATITTGGSPDYSDSVKGRFTISRDYDKRTLYLQMNSLKPEDTAVYYCAGRLWAHITSSGHDVWGQGTQVTVSS
notes: Produced and purified from yeast; also called FA1K
- IC50 (read off the curve) [1]: ~0.2 nM
- IC50 (read off the curve) [2]: ~0.2 nM

B2: liberated anti-IL-23 monomer arm of TNF-alpha/IL-23 dual inhibitor (VHH)
VHH: EVQLVESGGGQVQPGGSLSLSCESSVSIWSFKVMGWFRQVPGKQRELVATITTGGSPDYSDSVKGRFTISRDYDKRTLYLQMNSLKPEDTAVYYCAGRLWAHITSSGHDVWGQGTQVTVSS
notes: Cleavage product; carries the remnant of the linker at its N-terminus; also called liberated-IL-23
- IC50 (read off the curve) [3]: ~0.1 nM

B3: TNF-alpha inhibitor (anti-TNF-alpha single domain antibody, parent monomer) (VHH)
VHH: DVQLVESGGGLVQPGGSLKLSCAASGFDFSSHWMYWVRQAPGKELEWLSEINTNGLITHYGDSVKGRFTVSRNNAANKMYLELTRLEPEDTALYYCARNQHGLNKGQGTQVTVSS
notes: Produced and purified from yeast; also called ID-38F
- IC50 (read off the curve) [1]: ~0.3 nM

B4: liberated anti-TNF-alpha monomer arm of TNF-alpha/IL-23 dual inhibitor (VHH)
VHH: DVQLVESGGGLVQPGGSLKLSCAASGFDFSSHWMYWVRQAPGKELEWLSEINTNGLITHYGDSVKGRFTVSRNNAANKMYLELTRLEPEDTALYYCARNQHGLNKGQGTQVTVSS
notes: Cleavage product; carries the remnant of the linker at its C-terminus; also called liberated-TNF
- IC50 (read off the curve) [4]: ~0.2 nM

B5: IL-23 inhibitor (anti-IL-23 single domain antibody, parent monomer) (VHH)
VHH: EVQLVESGGGQVQPGGSLSLSCESSVSIWSFKVMGWFRQVPGKQRELVATITTGGSPDYSDSVKGRFTISRDYDKRTLYLQMNSLKPEDTAVYYCAGRLWAHITSSGHDVWGQGTQVTVSS
notes: Produced in yeast; also called IL-23: D1E ID-L253T
- IC50 (read off the curve) [2]: ~0.2 nM
